Experimental data taken from patent US20030186334A1, “KTS-disintegrins” (Temple University - Of the Commonwealth System of Higher …, priority 2001, published 2003).

How the values were obtained:
[1] = test system: dermal microvascular endothelial cells (EC); assay: apoptosis by caspase-3 levels in dermal microvascular endothelial cells; type: cell-based
Protocol: (§1) The mechanisms of the cancer-suppressing effect observed for obtustatin were investigated as follows. Dermal microvascular endothelial cells (EC) and human melanoma cells (MV3) were cultured and exposed to TNF-α, vincristine and obtustatin. (TNF-α and vincristine are compounds which induce cell death by apoptosis in both normal and cancerous cells.) Control cells received only vehicle. The extent of apoptosis was measured by determining caspase-3 levels.

[2] = test system: human melanoma cells (MV3); assay: apoptosis by caspase-3 levels in melanoma MV3 cells; type: cell-based
Protocol: as §1

[3] = biological target: T1, α1β1 integrin (Homo sapiens, UniProt P05556+P56199); assay: adhesion of α1K562 cells to immobilized collagen IV; type: cell-based; settings: for IC50: α1K562 cells, α1β1, collagen IV
T1 construct: expressed in transfected cells; host or cells: α1K562 cells
Protocol: Collagen IV (0.2 μg/well) in 0.02 M acetic acid was immobilized by incubation overnight at 4° C. on a 96-well plate. Plates were then blocked with 1% (w/v) BSA (bovine serum albumin) in Hank's Balanced Salt Solution (HBSS) containing 3 mM Mg^2+ at room temperature for 1-2 hours to prevent cells from non-specifically binding to the plates. α1K562 cells were labeled by incubation with 12.5 μM 5-chloromethylfluorescein diacetete (CMFDA) in HBSS for 15 minutes at 37° C. CMFDA labeled α1K562 cells were then pelleted, washed and resuspended in HBSS buffer containing 3 mM Mg^2+ and 1% BSA. […] The plates were washed three times with HBSS containing 3 mM Mg^2+ and 1% (w/v) BSA to remove unbound cells. Bound cells were lysed using 0.5% (v/v) Triton X-100 in H2O. Fluorescent CMFDA released by lysis of adherent cells in a given well was read using a Cytofluor 2350 fluorescence plate reader.
(§2) Adhesive ligands for the selected integrins consisted of collagen IV (0.2 μg/well), collagen I, fibronectin, or vascular cell adhesion molecule-1 (VCAM-1). Adhesive ligands in 0.02 M acetic acid were immobilized overnight at 4° C. on a 96-well plate. Plates were then blocked with 1% (w/v) BSA (bovine serum albumin) in Hank's Balanced Salt Solution (HBSS) containing 3 mM Mg^2+ at room temperature for 1-2 hours to prevent cells from non-specifically binding to the plates. α1K562, α2K562, K562, A5, and Jurkat cells expressing the α1β1, α2β1, α5β1, αIIbβ3, and α4β1 integrins respectively were labeled by incubation with 12.5 μM 5-chloromethylfluorescein diacetate (CMFDA) in HBSS for 15 minutes at 37° C. CMFDA labeled cells were then pelleted, washed and resuspended in HBSS buffer containing 3 mM Mg^2+ and 1% (w/v) BSA. […] Plates were then incubated at 37° C. for 30 minutes as indicated in Table 5 and washed three times with HBSS containing 3 mM Mg^2+ and 1% (w/v) BSA to remove unbound cells. Bound cells were lysed using 0.5% (v/v) Triton X-100 in H2O. Fluorescent CMFDA released by lysis of adherent cells in a given well was read using a Cytofluor 2350 fluorescence plate reader.
(§3) The effect of obtustatin, viperisrastatin, echistatin, and eristostatin on the binding of selected integrins to their adhesive ligands was evaluated using the cell adhesion assay described in Example 6. The integrin-expressing cells, integrins and corresponding adhesive ligands, and the results of the cell adhesion assay are shown in Table 6.

[4] = biological target: T2, α5β1 integrin (Homo sapiens, UniProt P05556+P08648); assay: adhesion of K562 cells to fibronectin; type: cell-based
T2 construct: endogenous in cells; host or cells: K562 cells
T2 sequence (P08648 42-894 limits assumed): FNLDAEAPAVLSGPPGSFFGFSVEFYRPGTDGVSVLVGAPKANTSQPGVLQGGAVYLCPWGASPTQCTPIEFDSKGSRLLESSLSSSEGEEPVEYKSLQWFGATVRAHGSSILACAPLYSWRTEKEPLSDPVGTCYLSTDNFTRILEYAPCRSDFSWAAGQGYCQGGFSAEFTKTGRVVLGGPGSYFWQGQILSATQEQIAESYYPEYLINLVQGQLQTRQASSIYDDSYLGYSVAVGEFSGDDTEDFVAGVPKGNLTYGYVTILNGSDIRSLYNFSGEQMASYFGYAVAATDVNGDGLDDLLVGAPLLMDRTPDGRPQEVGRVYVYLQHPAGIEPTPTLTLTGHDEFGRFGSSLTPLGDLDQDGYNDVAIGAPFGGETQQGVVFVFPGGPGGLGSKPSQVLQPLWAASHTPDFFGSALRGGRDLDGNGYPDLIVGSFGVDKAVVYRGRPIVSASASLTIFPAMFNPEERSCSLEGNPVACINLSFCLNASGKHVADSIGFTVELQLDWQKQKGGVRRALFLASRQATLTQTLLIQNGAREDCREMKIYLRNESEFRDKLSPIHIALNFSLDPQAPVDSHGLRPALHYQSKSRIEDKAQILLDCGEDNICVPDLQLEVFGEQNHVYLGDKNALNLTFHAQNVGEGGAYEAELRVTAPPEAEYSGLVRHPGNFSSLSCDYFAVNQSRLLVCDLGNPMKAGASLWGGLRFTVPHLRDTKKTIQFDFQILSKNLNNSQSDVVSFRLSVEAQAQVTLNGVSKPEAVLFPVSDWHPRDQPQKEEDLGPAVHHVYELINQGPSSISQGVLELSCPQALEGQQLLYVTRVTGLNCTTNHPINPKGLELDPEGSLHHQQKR
T2 sequence (P08648 895-1049 partner limits assumed): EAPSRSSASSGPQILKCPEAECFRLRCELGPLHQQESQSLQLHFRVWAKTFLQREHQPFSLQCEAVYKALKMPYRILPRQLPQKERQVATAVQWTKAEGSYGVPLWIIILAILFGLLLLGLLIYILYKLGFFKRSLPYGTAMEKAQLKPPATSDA
T2 sequence (P05556 21-798): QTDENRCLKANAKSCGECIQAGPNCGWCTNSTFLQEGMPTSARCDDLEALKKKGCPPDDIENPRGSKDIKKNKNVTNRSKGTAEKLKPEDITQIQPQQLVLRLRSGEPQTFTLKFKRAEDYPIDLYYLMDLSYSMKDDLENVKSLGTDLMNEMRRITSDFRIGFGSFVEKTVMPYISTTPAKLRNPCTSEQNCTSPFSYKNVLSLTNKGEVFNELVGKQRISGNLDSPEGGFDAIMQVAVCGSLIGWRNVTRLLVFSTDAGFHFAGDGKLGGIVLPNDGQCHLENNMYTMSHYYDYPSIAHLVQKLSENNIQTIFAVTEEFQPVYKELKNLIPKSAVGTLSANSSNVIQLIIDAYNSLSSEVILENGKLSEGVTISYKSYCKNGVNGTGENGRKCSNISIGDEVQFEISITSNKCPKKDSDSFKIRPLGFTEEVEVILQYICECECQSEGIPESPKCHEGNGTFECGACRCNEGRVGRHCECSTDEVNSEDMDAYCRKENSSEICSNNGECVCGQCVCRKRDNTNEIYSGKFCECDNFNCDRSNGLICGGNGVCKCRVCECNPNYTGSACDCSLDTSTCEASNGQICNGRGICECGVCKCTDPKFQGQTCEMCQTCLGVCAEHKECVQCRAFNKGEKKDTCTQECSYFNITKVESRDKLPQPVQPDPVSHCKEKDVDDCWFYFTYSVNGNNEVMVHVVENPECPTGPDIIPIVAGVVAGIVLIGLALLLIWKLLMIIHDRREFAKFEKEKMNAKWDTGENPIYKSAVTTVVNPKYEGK
Protocol: as §2, §3

[5] = biological target: T3, α4β1 integrin (Homo sapiens, UniProt P05556+P13612); assay: adhesion of Jurkat cells to VCAM-1; type: cell-based; settings: α4β1, VCAM-1
T3 construct: endogenous in cells; host or cells: Jurkat cells
Protocol: as §2, §3

[6] = biological target: T4, α9β1 integrin (Homo sapiens, UniProt P05556+Q13797); assay: adhesion of SW480α9 cells to VCAM-1; type: cell-based; settings: α9β1, VCAM-1
T4 construct: expressed in transfected cells; host or cells: SW480α9 cells
T4 sequence (Q13797 30-1035): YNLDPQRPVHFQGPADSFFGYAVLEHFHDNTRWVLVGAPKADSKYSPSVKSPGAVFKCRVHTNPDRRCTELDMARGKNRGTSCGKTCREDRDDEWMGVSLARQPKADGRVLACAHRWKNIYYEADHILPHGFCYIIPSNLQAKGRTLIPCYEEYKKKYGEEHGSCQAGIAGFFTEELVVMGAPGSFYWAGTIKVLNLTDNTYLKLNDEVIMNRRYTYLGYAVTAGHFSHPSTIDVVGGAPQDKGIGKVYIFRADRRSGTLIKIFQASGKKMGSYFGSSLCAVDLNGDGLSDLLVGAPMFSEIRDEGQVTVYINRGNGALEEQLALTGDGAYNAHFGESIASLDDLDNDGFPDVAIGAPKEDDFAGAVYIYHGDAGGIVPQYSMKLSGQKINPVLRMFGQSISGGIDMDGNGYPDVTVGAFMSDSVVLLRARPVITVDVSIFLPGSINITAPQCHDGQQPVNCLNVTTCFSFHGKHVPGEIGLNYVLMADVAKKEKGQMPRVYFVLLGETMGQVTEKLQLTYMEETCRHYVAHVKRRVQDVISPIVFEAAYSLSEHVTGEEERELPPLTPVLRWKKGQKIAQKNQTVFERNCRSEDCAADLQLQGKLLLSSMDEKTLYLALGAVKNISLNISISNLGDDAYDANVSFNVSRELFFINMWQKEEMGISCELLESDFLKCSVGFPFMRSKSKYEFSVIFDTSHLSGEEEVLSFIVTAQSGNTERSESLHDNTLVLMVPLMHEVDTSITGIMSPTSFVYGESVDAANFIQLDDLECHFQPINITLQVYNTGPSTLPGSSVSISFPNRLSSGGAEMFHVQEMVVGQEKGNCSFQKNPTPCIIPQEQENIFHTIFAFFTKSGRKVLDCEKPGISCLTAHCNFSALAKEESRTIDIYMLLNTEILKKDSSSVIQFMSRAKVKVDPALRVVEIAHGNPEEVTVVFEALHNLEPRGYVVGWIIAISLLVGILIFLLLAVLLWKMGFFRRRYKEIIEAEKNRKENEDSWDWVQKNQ
T4 sequence (P05556 21-798): as the sequence (P05556 21-798) above

[7] = biological target: T1, α1β1 integrin; assay: adhesion of HS.939T cells to collagen IV; type: cell-based; settings: α1β1, Coll IV
[8] = biological target: T5, αvβ3 integrin (Homo sapiens, UniProt P05106+P06756); assay: adhesion of JY cells to vitronectin; type: cell-based; settings: αvβ3, VN
T5 construct: endogenous in cells; host or cells: JY cells

[9] = biological target: T1, α1β1 integrin; assay: adhesion of α1K562 cells to collagen I; type: cell-based; settings: α1β1, Coll I
Protocol: as §2, §3

[10] = biological target: T6, α6β1 integrin (Homo sapiens, UniProt P05556+P23229); assay: adhesion of α6K562 cells to laminin; type: cell-based; settings: α6β1, LM
T6 construct: expressed in transfected cells; host or cells: α6K562 cells
T6 sequence (P23229 24-938 limits assumed): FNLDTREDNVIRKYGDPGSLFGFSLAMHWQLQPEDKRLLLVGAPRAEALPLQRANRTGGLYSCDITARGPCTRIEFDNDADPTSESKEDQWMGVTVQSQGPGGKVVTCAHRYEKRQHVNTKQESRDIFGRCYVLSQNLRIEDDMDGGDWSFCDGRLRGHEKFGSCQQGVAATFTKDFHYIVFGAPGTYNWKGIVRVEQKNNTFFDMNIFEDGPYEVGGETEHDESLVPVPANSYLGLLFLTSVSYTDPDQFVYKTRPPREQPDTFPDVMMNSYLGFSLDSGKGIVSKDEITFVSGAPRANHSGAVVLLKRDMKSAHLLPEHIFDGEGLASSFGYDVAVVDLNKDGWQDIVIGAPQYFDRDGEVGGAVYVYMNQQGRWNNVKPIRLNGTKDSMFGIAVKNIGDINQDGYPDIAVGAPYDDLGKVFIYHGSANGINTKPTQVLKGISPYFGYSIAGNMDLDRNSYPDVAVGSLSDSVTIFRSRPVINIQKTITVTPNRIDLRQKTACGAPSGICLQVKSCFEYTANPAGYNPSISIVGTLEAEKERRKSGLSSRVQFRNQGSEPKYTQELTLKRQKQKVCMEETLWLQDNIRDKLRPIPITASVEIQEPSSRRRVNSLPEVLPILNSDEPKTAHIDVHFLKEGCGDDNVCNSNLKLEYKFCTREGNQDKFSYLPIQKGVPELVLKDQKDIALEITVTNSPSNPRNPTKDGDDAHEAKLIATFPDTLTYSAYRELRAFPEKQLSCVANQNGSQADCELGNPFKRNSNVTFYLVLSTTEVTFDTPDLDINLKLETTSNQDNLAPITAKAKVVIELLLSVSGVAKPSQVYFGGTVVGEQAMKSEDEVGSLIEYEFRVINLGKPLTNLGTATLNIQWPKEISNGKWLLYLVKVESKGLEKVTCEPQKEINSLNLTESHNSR
T6 sequence (P23229 942-1130 partner limits assumed): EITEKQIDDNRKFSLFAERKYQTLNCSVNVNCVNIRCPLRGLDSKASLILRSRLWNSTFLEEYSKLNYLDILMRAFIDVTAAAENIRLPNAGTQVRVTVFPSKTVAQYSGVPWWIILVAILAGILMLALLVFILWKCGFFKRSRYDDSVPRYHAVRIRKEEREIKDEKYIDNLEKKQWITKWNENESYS
T6 sequence (P05556 21-798): as the sequence (P05556 21-798) above

[11] = biological target: T7, αIIbβ3 integrin (Homo sapiens, UniProt P05106+P08514); assay: adhesion of A5 cells to fibrinogen; type: cell-based
T7 construct: expressed in transfected cells; host or cells: A5 cells
Protocol: as §2, §3

[12] = biological target: T8, α1β1 integrin (Mus musculus, UniProt P09055+Q3V3R4); assay: adhesion of B16F10 cells to collagen IV; type: cell-based; settings: for IC50: α1β1, Coll IV
T8 construct: endogenous in cells; host or cells: B16F10 cells

[13] = test system: Lewis lung carcinoma; assay: Lewis lung carcinoma growth in syngeneic mouse model; type: in vivo, C57BL/6 mice; settings: 5 mg/kg intraperitoneally once daily for eight days
Protocol: Lewis lung carcinoma cells (1×10^6) were injected under the skin of the C57BL/6 mice (Tacoma Inc., Germantown, N.Y.), and tumors were allowed to grow for one week. The average tumor size after one week of growth was approximately 0.08 cm^3. The one-week time-point was called “day 0.” Two treatment groups of four mice each were injected intraperitoneally once daily with either 5 mg/kg obtustatin or 5 mg/kg echistatin beginning on day 0 for a total of eight days. A control group of four mice received only PBS. Tumor volume was measured daily using the formula length×width^2×0.52.

[14] = biological target: α2β1 integrin (Homo sapiens, UniProt P05556+P17301); assay: adhesion of α2K562 cells to collagen I; type: cell-based; parameters: expressed in transfected cells; host or cells: α2K562 cells
Protocol: as §2, §3

[15] = test system: angiogenesis; assay: Japanese quail chorioallantoic membrane (CAM) angiogenesis assay; type: in vivo; settings: 20 μg and 50 μg, in words
Protocol: The disintegrins obtustatin and eristostatin were evaluated for their effect on angiogenesis via a Japanese quail chorioallantoic membrane (CAM) assay, as is known in the art (see, for example, Parsons-Wingerter P et al., “A Novel Assay of Angiogenesis in the Quail Chorioallantoic Membrane: Stimulation by bFGF and Inhibition by Angiostatin According to Fractal Dimension and Grid Intersection.” Microvascular Research 55(3):201-214, 1998, the disclosure of which is herein incorporated by reference).

Molecule | apoptosis (caspase-3) [1] | apoptosis (caspase-3) [2] | inhibition of α1β1 integrin-mediated adhesion of α1K562 cells to collagen IV ([3]; in words) | IC50 [4] [µM] | IC50 [5] [µM] | IC50 [6] [µM] | IC50 [3] [µM] | IC50 [7] [µM] | IC50 [8] [µM] | IC50 [9] [µM] | IC50 [10] [µM] | IC50 [11] [µM] | IC50 [12] [µM] | inhibition of tumor development (tumor volume) [13] | IC50 [14] [µM] | effect on angiogenesis (fractal dimension) [15] | activity relative to obtustatin, mouse α1β1 integrin [12]
TNF-α | induced apoptosis | induced apoptosis | – | – | – | – | – | – | – | – | – | – | – | – | – | – | –
CKLKPAGTTC (obtustatin fragment) | – | – | did not appreciably inhibit | – | – | – | – | – | – | – | – | – | – | – | – | – | –
Echistatin: short RGD-containing disintegrin (QCESGPCCRNCKFLKEGTICKRARGDDMDDYCNGKTCDCPRNPHKGPAT) [reference compound] | – | – | – | 0.05 | > 10 | > 10 | > 10 | > 10 | 0.0001 | > 10 | > 10 | 0.05 | > 10 | no effect | > 10 | – | –
Eristostatin: short disintegrin compared with obtustatin (QEEPCATGPCCRRCKFKRAGKVCRVARGDWNDDYCTGKSCDCPKNPWNG) [reference compound] | – | – | – | > 10 | > 10 | > 10 | > 10 | > 10 | 2 | > 10 | > 10 | – | > 10 | – | > 10 | no affect | –
CC[C@]1(O)C[C@H]2CN(CCc3c([nH]c4ccccc34)[C@@](C(=O)OC)(c3cc4c(cc3OC)N(C=O)[C@H]3[C@@](O)(C(=O)OC)[C@H](OC(C)=O)[C@]5(CC)C=CCN6CC[C@]43[C@@H]65)C2)C1 [vincristine] | induced apoptosis | induced apoptosis | – | – | – | – | – | – | – | – | – | – | – | – | – | – | –
Viperisrastatin (CTTGPCCRQCKLKPAGTTCWKTSRTSHYCTGKSCDCPVYQG) | – | – | – | > 10 | > 10 | > 10 | 8e-05 | 2e-06 | > 10 | 2e-05 | > 10 | > 10 | 0.00025 | – | > 10 | – | similar
